Results on two molecules are retold here after paper PMC6415861, “The renal transport protein OATP4C1 mediates uptake of the uremic toxin asymmetric dimethylarginine (ADMA) and efflux of cardioprotective L-homoarginine” (PLoS ONE, 2019).

The target in one series is T1, OATP4C1 (Homo sapiens, UniProt Q6ZQN7).
T1 construct: gene SLCO4C1
T1 sequence (Q6ZQN7 1-724): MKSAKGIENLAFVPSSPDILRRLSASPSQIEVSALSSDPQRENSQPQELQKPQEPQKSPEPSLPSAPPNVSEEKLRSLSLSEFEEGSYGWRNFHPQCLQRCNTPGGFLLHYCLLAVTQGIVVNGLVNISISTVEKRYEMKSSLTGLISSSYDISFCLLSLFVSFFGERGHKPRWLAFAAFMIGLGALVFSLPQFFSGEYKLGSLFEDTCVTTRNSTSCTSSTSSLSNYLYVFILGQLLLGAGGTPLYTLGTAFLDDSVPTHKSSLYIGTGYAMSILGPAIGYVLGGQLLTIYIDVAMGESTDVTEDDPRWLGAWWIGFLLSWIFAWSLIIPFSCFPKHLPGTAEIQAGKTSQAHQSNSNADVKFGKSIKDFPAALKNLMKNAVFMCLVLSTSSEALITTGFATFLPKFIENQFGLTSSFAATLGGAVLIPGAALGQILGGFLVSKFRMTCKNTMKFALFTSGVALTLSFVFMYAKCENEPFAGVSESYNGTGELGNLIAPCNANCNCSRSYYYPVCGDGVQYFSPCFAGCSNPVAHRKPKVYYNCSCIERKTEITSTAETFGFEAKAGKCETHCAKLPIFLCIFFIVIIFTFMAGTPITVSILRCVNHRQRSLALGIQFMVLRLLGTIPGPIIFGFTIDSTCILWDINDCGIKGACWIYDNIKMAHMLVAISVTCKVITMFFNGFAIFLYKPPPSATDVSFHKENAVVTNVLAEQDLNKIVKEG
Briefly: inhibition of OATP4C1-mediated L-homoarginine ([…]) net uptake in HEK cells. The format is cell-based.

Substrate in series [1]: CN(C)C(=N)NCCC[C@H](N)C(=O)O
Briefly: radiolabeled uptake and efflux in HEK-OATP4C1 vs vector control cells (Km); also inhibits L-homoarginine uptake. The format is cell-based, Homo sapiens.

Substrate in series [2]: N=C(N)NCCCC[C@H](N)C(=O)O
Briefly: radiolabeled uptake and efflux in HEK-OATP4C1 vs vector control cells (Km). The format is cell-based, Homo sapiens.

Substrate in series [3]: N=C(N)NCCC[C@H](N)C(=O)O
Kind of series: radiolabeled uptake in HEK-OATP4C1 vs vector control cells (Km). Format: cell-based, Homo sapiens.

On OATP4C1, `CN=C(NC)NCCC[C@H](N)C(=O)O` [SDMA] gave a 50% inhibitory concentration (IC50) of 54 ± 1.3 µM.

B1: OATP4C1 (Homo sapiens) (protein)
chain: T1 sequence (Q6ZQN7 1-724)
For B1, the Km turned out to be 232.1 ± 78.9 µM in series [1], 49.9 ± 9.6 µM in series [2] and 48.1 ± 5.7 µM in series [3].
